In patent publication US20080044420A1 (published 2008):

Molecular target: T1, human IL-13R130Q (human, UniProt P35225 35-146, mildly biotinylated (approximately 1-2 molecules per molecule IL-13R130Q) in ELISA screens and receptor binding assays; not biotinylated when amine-coupled to the Biacore chip ; Mildly biotinylated …)
T1 construct: also called IL-13 R130Q variant; biotinylated IL-13R130Q
Experiment: method and antigen form not given
Procedure: Affinity determination by surface plasmon resonance (BIAcore™). […] F1 chips (Biacore, Sweden) were coated with ˜800 RU IL-13R130Q (250 μg/ml, 10 mM acetate buffer, pH 4.0) and respective amount of HSA (20 μg/ml/10 mM acetate buffer, pH 4.5) to the reference flow cell, using standard EDC-NHS amine coupling chemistry. Due to the instability of the antigen on the chip a freshly prepared chip was used for every measurement. Regeneration was done with 2×5 μl pulses of 10 mM HCl. All kinetic measurements were performed in PBS buffer (136 mM NaCl, 2.7 mM KCl, 10 mM Na₂HPO₄, 1.76 mM KH₂PO₄ pH 7.4) at a flow rate of 20 μl/min using Fab concentration range from 1.5-500 nM. Injection time for each concentration was 1 min. All sensograms were fitted globally using BIA evaluation software 3.1. Abbreviations: EDC 1-Ethyl-3-(3-Dimethlaminopropyl) carbodiimide; NHS N-hydroxysuccinimide; RU Resonance Units

T1 sequence (P35225 35-146 limits assumed): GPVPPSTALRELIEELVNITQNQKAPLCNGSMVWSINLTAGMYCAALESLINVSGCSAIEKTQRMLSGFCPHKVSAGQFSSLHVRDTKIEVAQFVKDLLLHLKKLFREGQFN

Kd: < 10 µM
B1: lead candidate SEQ ID NOS:48-49 (HC AA50 Gly, AA54 Asp, AA56 Ser; LC AA1 Ser, AA2 Tyr) (Fab, V domains shown)
VH: QVQLVESGGGLVQPGGSLRLSCAASGFTFNSYWINWVRQAPGKGLEWVSGIAYDSSNTLYADSVKGRFTISRDNSKNTLYLQMNSLRAEDTAVYYCARGLGAFHWDMQPDYWGQGTLVTVSS
VL: SYELTQPPSVSVAPGQTARISCSGDNIGGTFVSWYQQKPGQAPVLVIYDDNDRPSGIPERFSGSNSGNTATLTISGTQAEDEADYYCGTWDMVTNNVFGGGTKLTVL
notes: also called final lead candidate
